Reference: US20110059555, “BRANCHED AND MULTI-CHAIN NUCLEIC ACID SWITCHES FOR SENSING AND SCREENING” (Syracuse University, published 2011)

Assays:
[1] = biological target: NCp7 (nucleocapsid protein, Zn2.NCp7(1-55)) (HIV-1) (UniProt P35962); conditions: Trp assay; virtually identical Kd
[2] = biological target: NCp7 (nucleocapsid protein, Zn2.NCp7(1-55)) (HIV-1) (UniProt P35962); conditions: virtually no change in Kd
[3] = biological target: T1, NCp7 (nucleocapsid protein, Zn2.NCp7(1-55)) (HIV-1, UniProt P35962 SEQ:1-55); assay: Trp assay; K2 similar to that of SL3 RNA; conditions: label: 5'-dabcyl, T-FAM at 17 of the all-DNA strand; tethered duplex with hairpins (O-form favoured)
T1 chain: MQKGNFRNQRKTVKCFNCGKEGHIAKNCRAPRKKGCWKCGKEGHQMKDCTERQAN

[4] = biological target: T1, NCp7 (nucleocapsid protein, …); assay: equilibration with NCp7 within a minute at 10 nM switch; conditions: label: 5'-dabcyl, T-FAM at 17 of the all-DNA strand; tethered duplex switch

For SL3 16mer, the binding signal (fold Kd vs SL3 20mer) [1] was 1.

With SL3 G316-C321 the binding signal (fold Kd vs SL3) [2] was 1.

SL3 C315-G was tested, and the binding signal (fold Kd vs SL3) [2] was 1.

For SL3 A315-U322, the binding signal (fold Kd vs SL3) [2] was 1.

B1: M2 tethered switch (mixed)
DNA: GCATGCCTCCGCATGCTCACAGCACGACTCAGATGG
mixed: CCATCTGAGTCGTGCACGCUAGCGGUGGCUAGC
modifications: DNA strand / DNA-RNA chimera (UAGCGGUGGCUAGC is RNA)
For B1, the binding signal [3] was ~1 fold K2 vs SL3 RNA.

B2: M3 tethered switch (mixed)
DNA: GCTATCCACCGATAGCTCACAGCACGACTCAGATGG
mixed: CCATCTGAGTCGTGCACGCUAGCGGUGGCUAGC
modifications: DNA strand / DNA-RNA chimera (UAGCGGUGGCUAGC is RNA)
B2: binds [4].
